Substrate in data set [1]: C=C(C)CCOP(=O)(O)O
The data set is described as follows: Isoprene production from isoprenyl monophosphate, GC/FID. Type of data set: biochemical, Eucalyptus globulus. The conditions noted are these: other: isoprenyl monophosphate 0-150 mM, pH 7.5, 20 mM MgCl2, 37° C., 18 h, enzyme 4 mg/ml. As for the experimental part: (§1) The genes encoding the enzymes of interest were cloned in the pET 25b(+) vector (Novagen). Nucleotide sequences encoding a chloroplast transit peptide in plant terpene synthases were removed, resulting in DNA sequences encoding the mature proteins only. […] Competent E. coli BL21(DE3) cells (Novagen) were transformed with this vector by heat shock. The transformed cells were grown with shaking (160 rpm) on ZYM-5052 auto-induction medium (Studier FW, Prot. Exp. Pur. 41, (2005), 207-234) for 6 h at 37° C. and protein expression was continued at 28° C. or 20° C. overnight (approximately 16 h). The cells were collected by centrifugation at 4° C., 10,000 rpm for 20 min and the pellets were frozen at −80° C.
The pellets from 200 ml of culture cells were thawed on ice and resuspended in 5 ml of Na2HPO4 pH 8 containing 300 mM NaCl, 5 mM MgCl2 and 1 mM DTT. […] Protein concentrations were quantified according to the Bradford method. […]
2.5 mg of the terpene synthase was added to 0.5 ml of reaction mixture. […] Gas chromatography-mass spectrometry (GC-MS) was then used to confirm the identity of the product detected by gas chromatography with flame ionization. The samples were analyzed on a Varian 3400Cx gas chromatograph equipped with Varian Saturn 3 mass selective detector. […]
Kinetic parameters of isoprene production were evaluated in the following conditions: […]

Substrate in data set [2]: CC(C)=CCOP(=O)(O)O
The experiment in a line: purified protein, by the assay type. To be noted: other: prenyl monophosphate 0-150 mM, pH 7.5, 20 mM MgCl2, 37° C., 18 h, enzyme 2 mg/ml.

Substrate in data set [3]: CC(C)=CCO
The data set is described as follows: Prenol phosphorylation, pyruvate kinase/lactate dehydrogenase coupled assay (ADP release), R. leguminosarum kinase. Type of data set: biochemical, Rhizobium leguminosarum. To be noted: other: prenol, 5 mM ATP, pH 7.5, 37° C., enzyme 0.5 mg/ml. On the procedure:
as §1
(§2) The pellets from 200 ml of culture cells were thawed on ice and resuspended in 5 ml of Na2HPO4 pH 8 containing 300 mM NaCl, 5 mM MgCl2 and 1 mM DTT. Twenty microliters of lysonase (Novagen) were added. Cells were incubated 10 minutes at room temperature and then returned to ice for 20 minutes. Cell lysis was completed by sonication for 3×15 seconds. The bacterial extracts were then clarified by centrifugation at 4° C., 10,000 rpm for 20 min. The clarified bacterial lysates were loaded on PROTINO-1000 Ni-TED column (Macherey-Nagel) allowing adsorption of 6-His tagged proteins. Columns were washed and the enzymes of interest were eluted with 4 ml of 50 mM Na2HPO4 pH 8 containing 300 mM NaCl, 5 mM MgCl2, 1 mM DTT, 250 mM imidazole. […] Protein concentrations were quantified according to the Bradford method. […]
(§3) The purified 4-methyl-5-(2-hydroxyethyl) thiazole kinases from Escherichia coli, Bacillus subtilis, Rhizobium leguminosarum were evaluated for their ability to phosphorylate prenol. The release of ADP associated to prenol phosphorylation was quantified using the pyruvate kinase/lactate dehydrogenase coupled assay (FIG. 4). […]
(§4) Each assay was started by the addition of the enzyme at a final concentration 0.5 mg/ml and the decrease of NADH was monitored by following its absorbance at 340 nm. […]

Substrate in data set [4]: C=C(C)CCO
The experiment in a line: Isoprenol phosphorylation, pyruvate kinase/lactate dehydrogenase coupled assay (ADP release), R. leguminosarum kinase. To be noted: other: isoprenol 0-40 mM, 5 mM ATP, pH 7.5, 37° C., enzyme 0.025 mg/ml. Type of data set: biochemical, Rhizobium leguminosarum. On the procedure:
as §1, §2
(§5) The release of ADP that is associated with isoprenol phosphorylation was quantified using the pyruvate kinase/lactate dehydrogenase coupled assay (FIG. 4). The purified 4-methyl-5-(2-hydroxyethyl)thiazole kinases from Escherichia coli, Bacillus subtilis, Rhizobium leguminosarum were thus evaluated for their ability to phosphorylate isoprenol. […]
(§6) Each assay was started by the addition of the enzyme at a final concentration 0.025 mg/ml and the decrease of NADH was monitored by following its absorbance at 340 nm. […]

Substrate in data set [5]: CC(C)=CCO
The data set is described as follows: Prenol phosphorylation, pyruvate kinase/lactate dehydrogenase coupled assay (ADP release), B. subtilis kinase. The conditions noted are these: other: prenol, 5 mM ATP, pH 7.5, 37° C., enzyme 0.5 mg/ml. Type of data set: biochemical, Bacillus subtilis. On the procedure:
as §1, §2, §3, §4

Substrate in data set [6]: C=C(C)CCO
The experiment in a line: Isoprenol phosphorylation, pyruvate kinase/lactate dehydrogenase coupled assay (ADP release), B. subtilis kinase. Type of data set: biochemical, Bacillus subtilis. To be noted: other: isoprenol 0-40 mM, 5 mM ATP, pH 7.5, 37° C., enzyme 0.025 mg/ml. On the procedure: as §1, §2, §5, §6

Substrate in data set [7]: C=C(C)CCO
The experiment in a line: Isoprenol phosphorylation, pyruvate kinase/lactate dehydrogenase coupled assay (ADP release), E. coli kinase. To be noted: other: isoprenol 0-40 mM, 5 mM ATP, pH 7.5, 37° C., enzyme 0.025 mg/ml. Type of data set: biochemical, Escherichia coli. As for the experimental part: as §1, §2, §5, §6

Substrate in data set [8]: CC(C)=CCO
The data set is described as follows: Prenol phosphorylation, pyruvate kinase/lactate dehydrogenase coupled assay (ADP release), E. coli kinase. Type of data set: biochemical, Escherichia coli. To be noted: other: prenol, 5 mM ATP, pH 7.5, 37° C., enzyme 0.5 mg/ml. On the procedure: as §1, §2, §3, §4

The nature of data set [9]: Screening for isoprene production from isoprenyl monophosphate with purified terpene synthases. Type of data set: biochemical. To be noted: 10 mM isoprenyl monophosphate, 37° C., 17 h, GC-FID / GC-MS of headspace. On the procedure:
The enzymatic assays were carried out under the following conditions at 37° C.:
10 mM isoprenyl monophosphate (Sigma)
2.5 mg of the terpene synthase was added to 0.5 ml of reaction mixture. An enzyme-free control reaction was carried out in parallel. Assays were incubated at 37° C. for 17 h in a 1.5 ml sealed glass vial (Interchim) with shaking. One ml of the headspace phase was then collected and injected into a gas chromatograph Varian 430-GC chromatograph equipped with a flame ionization detector (FID). Nitrogen was used as carrier gas with a flow rate of 30 mL/min. Volatile compounds were chromatographically separated on Rtx-1 column (Restek) using an isothermal mode at 100° C. The enzymatic reaction product was identified by direct comparison with isoprene standard (Sigma). Under these GC conditions, the retention time for isoprene was 3.47 min. […] Gas chromatography-mass spectrometry (GC-MS) was then used to confirm the identity of the product detected by gas chromatography with flame ionization. The samples were analyzed on a Varian 3400Cx gas chromatograph equipped with Varian Saturn 3 mass selective detector. A mass spectrum of isoprene obtained by enzymatic conversion of isoprenyl monophosphate was similar to the one of commercial isoprene (FIG. 8).

B1: Eucalyptus globulus monoterpene synthase (UniProt Q0PCI4), SEQ ID NO: 6 (Eucalyptus globulus) (protein)
chain: ASTQISDPQEGRRSANYQPSVWTYNYLQSIVAGEGRQSRREVEQQKEKVQILEEEVRGALNDEKAETFTIFATVDDIQRLGLGDHFEEDISNALRRCVSKGAVFMSLQKSLHGTALGFRLLRQHGYEVSQDVFKIFLDESGSFVKTLGGDVQGVLSLYEASHLAFEEEDILHKARSFAIKHLENLNSDVDKDLQDQVKHELELPLHRRMPLLEARRSIEAYSRREYTNPQILELALTDFNVSQSTLQRDLQEMLGWWNNTGLAKRLSFARDRLIECFFWAVGIAHEPSLSICRKAVTKAFALILVLDDVYDVFGTLEELELFTEAVRRWDLNAVEDLPVYMKLCYLALYNSVNEMAYETLKEKGENVIPYLAKAWYDLCKAFLQEAKWSNSRIIPGVEEYLNNGWVSSSGSVMLIHAYFLASPSIRKEELESLEHYHDLLRLPSLIFRLTNDIASSSAELERGETTNSIRCFMQEKGISELEARECVKEEIDTAWKKMNKYMVDRSTFNQSFVRMTYNLARMAHCVYQDGDAIGSPDDLSWNRVHSLIIKPISPAA
On to B1, for which the Km in [1] worked out at 40 mM; in data set [2], 60 mM. The values for the kcat in data set [1] and in [2] were 1.6e-05 s⁻¹ and 0.00056 s⁻¹, respectively.

B2: Rhizobium leguminosarum 4-methyl-5-(2-hydroxyethyl)thiazole kinase (hydroxyethylthiazole kinase, EC 2.7.1.50) (Rhizobium johnstonii 3841) (protein)
chain: MQTRTTPGAMLKAMREKPPLVQCITNYVAMNIAANVLLAAGASPAMVHAAEEAGEFAAIASALTINIGTLSTQWIDGMQAAAKAATSAGKPWVLDPVAHYATAFRRNAVAELLALKPTIIRGNASEIIALAGGESRGQGVDSRDPVEQAEGSARWLAERQRAVVAVTGAVDFVTDGERAVRIEGGSALMPQVTALGCSLTCLVGAFAATAPEDIFGATVAALSTFAIAGEEAALGAAGPGSFSWRFLDALAALDAETLDARARISAA
Turning to B2, in data set [3], the Km amounted to 10 mM, the kcat was determined as 0.01 s⁻¹ and the kcat/Km is 1 M⁻¹ s⁻¹. In addition, in data set [4], the Km stood at 10 mM, the kcat amounted to 0.8 s⁻¹ and the kcat/Km is 80 M⁻¹ s⁻¹.

B3: Bacillus subtilis 4-methyl-5-(2-hydroxyethyl)thiazole kinase (hydroxyethylthiazole kinase, EC 2.7.1.50) (Bacillus subtilis subsp. subtilis str. 168) (protein)
chain: MDAQSAAKCLTAVRRHSPLVHSITNNVVTNFTANGLLALGASPVMAYAKEEVADMAKIAGALVLNIGTLSKESVEAMIIAGKSANEHGVPVILDPVGAGATPFRTESARDIIREVRLAAIRGNAAEIAHTVGVTDWLIKGVDAGEGGGDIIRLAQQAAQKLNTVIAITGEVDVIADTSHVYTLHNGHKLLTKVTGAGCLLTSVVGAFCAVEENPLFAAIAAISSYGVAAQLAAQQTADKGPGSFQIELLNKLSTVTEQDVQEWATIERVTVS
notes: homotrimer
Take B3: in data set [5], the Michaelis constant (Km) stood at 3 mM, the kcat worked out at 0.006 s⁻¹ and the kcat/Km amounted to 2 M⁻¹ s⁻¹. Also, in data set [6], the Km came to 3 mM, the kcat came to 0.03 s⁻¹ and the kcat/Km stood at 10 M⁻¹ s⁻¹.

B4: Escherichia coli 4-methyl-5-(2-hydroxyethyl)thiazole kinase (hydroxyethylthiazole kinase, EC 2.7.1.50) (Escherichia coli K-12) (protein)
chain: MQVDLLGSAQSAHALHLFHQHSPLVHCMTNDVVQTFTANTLLALGASPAMVIETEEASQFAAIASALLINVGTLTQPRAQAMRAAVEQAKSSQTPWTLDPVAVGALDYRRHFCHELLSFKPAAIRGNASEIMALAGIANGGRGVDTTDAAANAIPAAQTLARETGAIVVVTGEMDYVTDGHRIIGIHGGDPLMTKVVGTGCALSAVVAACCALPGDTLENVASACHWMKQAGERAVARSEGPGSFVPHFLDALWQLTQEVQA
Take B4: in data set [7], the Km stood at 7.5 mM, the kcat worked out at 1 s⁻¹ and the catalytic efficiency (kcat/Km) worked out at 130 M⁻¹ s⁻¹. In addition, in data set [8], the Michaelis-Menten constant (Km) came out at 3 mM, the kcat worked out at 0.05 s⁻¹ and the kcat/Km amounted to 16 M⁻¹ s⁻¹.

B5: monoterpene synthase from E. globulus: purified monoterpene synthase of Eucalyptus globulus (UniProt Q0PCI4, SEQ ID NO: 6) (protein, listed as Eucalyptus globulus)
chain: MALRLLFTPHLPVLSSRRANGRVRCSASTQISDPQEGRRSANYQPSVWTYNYLQSIVAGEGRQSRREVEQQKEKVQILEEEVRGALNDEKAETFTIFATVDDIQRLGLGDHFEEDISNALRRCVSKGAVFMSLQKSLHGTALGFRLLRQHGYEVSQDVFKIFLDESGSFVKTLGGDVQGVLSLYEASHLAFEEEDILHKARSFAIKHLENLNSDVDKDLQDQVKHELELPLHRRMPLLEARRSIEAYSRREYTNPQILELALTDFNVSQSTLQRDLQEMLGWWNNTGLAKRLSFARDRLIECFFWAVGIAHEPSLSICRKAVTKAFALILVLDDVYDVFGTLEELELFTEAVRRWDLNAVEDLPVYMKLCYLALYNSVNEMAYETLKEKGENVIPYLAKAWYDLCKAFLQEAKWSNSRIIPGVEEYLNNGWVSSSGSVMLIHAYFLASPSIRKEELESLEHYHDLLRLPSLIFRLTNDIASSSAELERGETTNSIRCFMQEKGISELEARECVKEEIDTAWKKMNKYMVDRSTFNQSFVRMTYNLARMAHCVYQDGDAIGSPDDLSWNRVHSLIIKPISPAA
On to B5, for which, in [9], the “Isoprene production from isoprenyl monophosphate” value is “isoprene produced”.

The values are drawn from patent US20150284743A1, “METHODS FOR THE ENZYMATIC PRODUCTION OF ISOPRENE FROM ISOPRENOL” (GLOBAL BIOENERGIES, priority 2012, published 2015).
